# Laboratory results as given in the DeepSol protein solubility set.
# Test: soluble on expression in E. coli; label from the status in PepcDB or PDB records
row,Sequence,soluble on expression in E. coli
1,MRFAVLGSGSQGNGTLIASGDTFILVDCGFSLRETERRLALLGVSAAQLSAVLVTHEHADHVHGVGLLSRRYNVPVYLSQGTLRGMRKPVEVAGFLACGQSLHIGSLEVTAARVEHDAYEPLQYVVSDGKRRFGMLTDLGSYDALLLERYQGLDALLIEANHCRDLLARGHYPAFLKQRVGGMQGHLNNHQAARLVHELGWNNLQHLVLAHLSSKNNLPHLARQCFVDTLGCDPDWLQVANQEHGLDWREIALEHHHHHH,soluble
2,GPGSMVDVIIYTRPGCPYCARAKALLARKGAEFNEIDASATPELRAEMQERSGRNTFPQIFIGSVHVGGCDDLYALEDEGKLDSLLKTGKLI,soluble
3,MGSDKIHHHHHHMSLLVKAYRYGYTIARVTPASACWRYVGFAAYRLGTAEVVHVHEPSREVCIVVLTGTVDIETADTTWRSLGSRDSVFEDAAPYAVYLPPNVRATVRACRDAEIGVASAPARGGYPARLIEPASMKRSTRGKGLNTRYVCDILPQTEPAESLLVVEVRTPGGHASSYPPHKHDTDNVPQESSLEETYYHRLDPPQGFAFQRVYTDMRDIDESMAVEDHDVVMVPRGYHPVVVPYGYDSYYLNVMAGGKRVWHFRNDPAHEWIINKDA,not soluble
4,GPGSMPRGAIPTGQDWEEQRFNFQQRGSGGSAQPRKVTERDANRAMQSGQNVQVQRKEHQRFNQQTVSAGANAKKLDEDNETLKVKKVDPHLRVRIMKERQALNWSQQDLAQRISERVSVVAEYESGKAVQEERVIVKMEKALGVHLRGAKAGEPMGKTRPAPKAQE,soluble
5,MATQGAWLRMTSSAKSMTKSTVTSKELGFLTSQLSGLRISYTPSDVINRISLPSFPGIQPIVARRICPFTGKKANRANKVSFSNHKTKKLQFVNLQYKRVWWEAGKRFVKLRLSTKALKTIEKNGLDAVAKKAGIDLRKKLEHHHHHH,not soluble
6,MTYCLAIKVDQGLVFASDSRTHAGVDYASVYSKMYRFDLHSDRLMIVLAAGNLATTQAVINLIRRDLENPGALYNLNTVAYLYDAASYIGETSVRVQEQHASAMQRCGISGEASFILGGQIQGQPPEIYLIYPQGNYITVSPDNPYLQIGETKYGKPILDRMIAPATTLEDAARCALVSIDSTMRSNISVGPPVEVAIYRRNSFVVGHYLHLDYSSPLYALIQKQWAEGIRNAFTLLPRFEWEDGGSIGSEQSQLEHHHHHH,not soluble
7,MLGFNGERLDPASGAFHLGNGYRAYSPALMRFHCPDSLSPFGASGVNPYAYCAGDPANRADPSGHLSWQAWTGIGLAVASLALAAFTAGTSIIASGGIVAALESASAITLAEGGLAVVSDMTAIACGAMEASDPQAAAALSWVSLACGAMGMVHAGYGAVRGIDRKLGAFLQENSRFLGKITRGERDSLGIPLGGGLTKCFRPASEMEGASAGIALGRLHRSSSTPDMEAFLALPAAKRKRIGSGVSGVVYEAGRGWVVKIAIDPLPIETMEREAEIFRAVHGPRSALVAENMLWMKRIPGVPVNTLNLLADEKAEMWQKTLAEVKRLQEMGIHHGDPSWNNLLFDQQTGTVSFIDFGKSRYLDGFAPATLEHHHHHH,soluble
8,MGSDKIHHHHHHMSRYLEMLSLFGVAGAHPGGLAFSKAVLQKAAPSPDQPILDAGCGTGQTAAYLGHLLYPVTVVDKDPIMLEKAKKRFANEGLAIPAYQAELEHLPFSSESFSCVLSESVLSFSRLTSSLQEISRVLKPSGMLIGIEAALKKPMPPAEKKQMMDFYGFTCLHEESEWHKLLRSYGFQKTEAMSLLPEDMEFEPTTEMDLSQTIDPIYYDTLQTHYQLMQLYSEYMGHCIFIAYK,not soluble
9,MGSDKIHHHHHHMRIAFSTLGCPQAPLHEVTALAREHRVDGLELRIHDDGIVSDHMDRSRREQVRASISRTGLTVLSLGSYIKVCQPGPDETVVRQLRTALELAADVGAEAVRVFPGAGTGPTTDHYGIAVTELDMRGSSRLAAAAPIAERLGLRLLLETHDSHPRGVDISRILAPFRAEDPVGAIWDVMHPWRFGEDPVQTAHQLGSHYQYVQFKDATMDRQTGNLTMTLPGAGDIPLQRILDLVVARTPTTEEPWISLEWEKAWHPELPGLPEALIAFKTLLGRPESDAALSGSPRRPGSAAGARRNGTL,not soluble
10,MNQQTYAFTLEMEVRDYECDMQGIVNNSVYQNYLEHARHVYLKTVGIDFKEFTERGINLVVVRAELDYKLPLQSGDRFRVGLNMVRQSPLRFAFYQDILRLPDMKPAVKARIIGTALNGRGRPEIPAELEALMQPGELEHHHHHH,soluble
11,MSTHASAHGSTHTSTHHPIAVIGAGLGGLAAARVLHVHGIEAAVYEADASPTARHQGGMLDIHGESGQAALRAAGLYEEFRAIVHPGGEATRILDKDGTVRHEEGDRPEEGDRPEVDRNDLRRILLDSLPEGTIRWGAKVTGARALGGGRHEVTLADGSVFTTDVLIGADGAWSRIRPLLSPATPAYTGISFVEADLHEAATRHRAAAELVGGGSMFALAEGKGILTHLETDGSVHAYVALKADEDWLSTIDFTGTDTDTAKKTLLTHFEDWDDRLRALITDADGALVPRLIHALPVDHRWERTAGVTLLGDAAHLMSPFAGEGANLALLDGAELATALAAHPADPESALTAYERSLFPRSHRAAGESAANLTFMFGPNALEELVGMMSGHEPSDRLEHHHHHH,soluble
12,MSRLVLLISLVIVVASAAAPQCEVCKKVLDDVMAKVPAGDKSKPDAIGKVIREHCETTRNKENKFCFYIGALPESATSIMNEVTKPLSWSMPTEKVCLEKLKGKDAQICELKYDKPLDWKTIDLKKMRVKELKNILGEWGEVCKGCTEKAELIKRIEELKPKYVKEEL,not soluble
13,MTRLLYYEDAYLKEAKAKVLEVKDNALLLDQTIFYPTGGGQPHDRGWINGVEVLDVYKDEEGNVWHVVKELEKFKPGDEVELKLDWEYRYKLMRIHSALHLLENVLDQILGKGNWEVVGSGMTHEKGRLDVGYPENLNAYKEKIIELFNRYVDEGGEIKIWWEGEKRYTQIRDFDPIPCGGTHVKDIREIGHIKKLKRSSIGRGKQRLEIWLEDLEHHHHHH,not soluble
14,MSLNAHLSAAWPVPVSVAPDALAEIQADFSREWLRLCDEAKRGVLGAPADKRFAGAAWLDDRQRLLMAHAYLLSARAMARLVEAAQVSEPMRNRLRFSVMQWVDAMSPANFLAFNPDAQRAIVESAGRTLQEGMANLLNDIQRGRISQTDETQFEIGRNVATTPGHVVFENSLMQLIQYAPQTAKVCERPLVIVPPNINKYYILDLQPENSFVRYAVEQGHTVFIISWRNPLAADTDGVDTATWSEYLDDAVLKALAVASDISGQPQVNALGFCVGGTMLASALALAQARGERPVASLTLLTSLLDFHDTGILKVFVDEAHALLRDHQYGQRGLMPARDLATTFSFLRPNELVWNYVVSNYLKGKTPPAFDLLFWNADSTNLPGPFFAWYFRNTYLENNLKVPGRARAAGVPLDLTRLDMPAYLYGSREDHIVPWPSAYASTQLLRGPMRFVLGASGHIAGVINPPAKQRRSYWVNESAGEGHHHHHH,not soluble
15,MIIEHNGNIHKIARMTGNKNNFLEIILSDIHENIKIKPLTIKVKGENVINILPEEVSFYVKQGVDLIYEKYKRKFFISEISFCQSDSRPSSIYAFLTFHLLEDIIKNESPSNYT,not soluble
16,MAHHHHHHMSFKQVFLRDNEECQAFPWDALTHPSQSAGEERRTIHHHLAWPAVCEREEAVMGTQPARKVSELTSVSFFLQPPFAIPRRKTGRSSLGCRHDRPLYAAGSAGPRCGDKPTLFVGAAEADFCDDMGWRQRSNSPVSSVEHNAEDDGEDFDVEPVVLKRSLSEKDRRKRLHLSEMSARLCHAFAMKPFRLACGLGLDESDDGVGMENQSGWGAGEEAAVPLREKDDDDDTTPARQTAPISETQRGNTALNFTDNDLSVVRAIALALMEEGEKKRRQEMRRKTN,not soluble
17,IEAENHKVTDKIKNAQPFLVDVVPAKSVIPELNDDAQKTLLHAGPPIQWSEMTGPMKGACIGAALFERWADNEEDALKIFEAGEVRFIPCHHVKAVGPMGGITSGNMPVFVVENRLEGNEAYCILNEGIGKVLRFGAYSQEVVDRLDWIKDVLGPTIAKALKLSEEGLNLNVLIARSITMGDEFHQRNIAASLNFLKELSPLIIKTDIPEDQKYEVIKFLADTDQFFLNVMMATGKAIVDGARKDTNGTIVTTMTRNGVNFGVRIAETGDQWHTAPVNTPKGLYFTGFSEEDGNPDVGDSAITETVGVGAMAMVAAPGVTRFVGAGGFEDALATSNEMAKICEGNNPTFSIPTWDFQGTCLGIDIRKVVELGITPIINTGIAHKNAGVGQIGAGTVRAPLGCFEKALEAYAEKLGITVE,not soluble
18,MAYFFKNLVFEGGGVKGIAYIGALEVLQEEKIFPKIKRVAGTSAGAIMAVLIGLGYTPSEIKEIMWCLNFKNFMDDSWGIIQDTKRLIEKFGWYKGDFFRNWLGDLIKAKTGNSESTFADLAAMKGENKFLDISLIGTNLSTGFSEIFSAEHTPRICIADAARISMSIPLFFAAKRNFRNDVYVDGGMLNNYPVKVFDRTKYVTKNFTRTGYYEPINKKLEKRPRKIADYVYNKETLGFRLDSKEKIAFFRDNAEPPHRDIDSFFDYTVSLFGTLLSAQDDVHLHSDDWQRTIYIDTLGVKTTDFAISDAQKKALLESGRSYTQSYLEWYNNSEEKVNK,not soluble
19,MSLDSQQKLAAQVTTPLTLSGDNQQAVAIFDQADPRIRIVYFGFTRCPDVCPTSLAMLSAALNQVDDKTKAQLRPMFISLDPERDDAKLAAQYAHYFHPMIEGLSGSVATTNQIAQKYGVIFRKTELPNSELKYTLDHSSYFYFLQPDGTLINKVPHTQDPTPIVDAIKKVIQEGHHHHHH,soluble
20,MGSDKIHHHHHHMHKDVSQLPQKANPALVKQANLFADLPTKLIEDFQQEFQLNQWNKGDYINSDILTQRFFVVIEGNIEIKQSNPDTGREATLDMLYAGDCFDLMVLLDNQPHEVIISPLTTVKLLSVKLSTMRYWLWTYPEFNQQFMPYIAKKMREKEQQASSLILHDVTTRLSRIILEHINKIKFYTGTKEEEHQHHLVNGLNDETLARMTGSVRQVINKQLQHWKKEDVIDKKRNQLIIKDLEALEKEAKYTQNLANAPLSKS,not soluble
21,MGSDKIHHHHHHMVLVVDYGSQYSRLITRRIRENEVYSEVVFPDDKVDLSKVDAVILSGGPRSVYEEDAPKLPEWFQEYKGPVLAICYGMQLIVKELGGEVRRGRGEYGRTLVELSRDPIFEGIPEKVHVWMSHGDEVVRLPEGFHPIAVSETGVIAAATDGKRFWLLQFHPEVHHTEYGDRMISNFLFNVCKLEKNWKIGDLVEEKIRHIKETIGNKKAILALSGGVDSSVAAVLVHRAIGKNLVCVFVDHGLLRKNEREEVERVFKEHFDMNLVVVDARKRFLEKLRGVTDPEKKRKIIGEEFIRVFEEEAKKHDVEFLVQGTIYSDVIESAASGKTTAKIKSHHNVGGLPEKMNLKLVEPLRDLFKDEVRKVGKYLGIPDRIINRHPFPGPGLAVRVLGEVTEEKLEILREADYIFIETLRKHDYYDKVWQAFAVLLPIKSVGVKGDARAYEYVVALRAVNSVEGMTADWSRIPHDILDEAARRITREVKGVGRVVYDITSKPPATIEWE,not soluble
22,MNDYIVVKCGGSMLEQLNDVFFDCIKKLQQQYKVVIVHGGGPEIDAKLKDCNINVEKRDGLRVTPKEVMDVVQMVLCGSTNKKFVMNLQKHNLLAVGCSGCDGKLLQVQPVSEEIGYVGEVSYVETALLKGLINMNYIPVIAPIGIHDNEIYNINADTAAAGIAAALSAKELILITDVDGILHEGKLVKKTDESEIATLIEKGVITGGMIPKVQAALASLKMGVQKISIVNGTKDFTEDTGECIGMTVTRGVSIV,not soluble
